We go through two molecules from publication PMC3448977 (Biochemistry, 2012).

For assay [1], the target named is BMP-9 (Homo sapiens) (UniProt Q9UK05). The settings on record: cited from earlier work.
Assay [2] has as its target T1, Human BMP-9 (human, UniProt Q9UK05 320-429).
T1 sequence (looked up): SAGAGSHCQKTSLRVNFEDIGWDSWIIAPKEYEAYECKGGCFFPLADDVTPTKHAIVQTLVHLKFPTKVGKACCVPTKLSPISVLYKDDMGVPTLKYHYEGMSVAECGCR
Briefly: SPR.

As to Fc-Alk1 ECD (from UniProt P37023), the Kd in assay [1] was 2.5 nM.

B1: Alk1 extracellular domain with Arg53-Glu54-Leu55 swapped for Asp-Phe-Gln of Alk3 (Alk1-DFQ) (domain or fragment, human)
chain: GSHMDPVKPSRGPLVTCTCESPHCKGPTCRGAWCTVVLVREEGRHPQEHRGCGNLHDFQCRGRPTEFVNHYCCDSHLCNHNVSLVLEATQPPSEQPGTDGQ
Consider B1, for which binding in assay [2] was put at a Kd of 5700 nM.
